Here are results for seven substances from patent US20040115622A1.

For experiment [1], the target named is HLA-DR molecule encoded by the allele DRB1*0401 (human). In words: competition ELISA vs biotinylated HA 306-318. A general note: ELISA stands for enzyme-linked immunosorbent assay.
The target in experiment [2] is HLA-DR molecule encoded by the allele DRB1*0101 (human). In words: competition ELISA vs biotinylated HA 306-318.
Experiment [3] has as its target HLA-DR molecule encoded by the allele DRB5*0101 (human). In words: competition ELISA vs biotinylated HA 306-318.
In experiment [4] the target is HLA-DR molecule encoded by the allele DRB1*1501 (human). In words: competition ELISA vs biotinylated A3 152-166.
Experiment [5] addresses HLA-DR molecule encoded by the allele DRB4*0101 (human). In words: competition ELISA vs biotinylated E2/E168.
The target of experiment [6] is HLA-DR molecule encoded by the allele DRB1*0701 (human). In words: competition ELISA vs biotinylated YKL.

What is called IC50 is the concentration at which inhibition is half-maximal. Read a high IC50 as lower potency. Regarding “Nef4.3 peptide (positions 72-86 of the HIV-1 Nef protein, Bru strain) (from UniProt P03406 72-86) (peptide; other documents disagree on this pair)”, the IC50 in experiment [1] amounted to 2000 nM; in experiment [2] it was 2000 nM; in experiment [3], 1500 nM; in experiment [4], 1930 nM; in experiment [5], 2430 nM.

As for “Nef4.4 peptide (positions 74-88 of the HIV-1 Nef protein, Bru strain) (from UniProt P03406 74-88) (peptide; other documents disagree on this pair)”, the half-inhibitory concentration (IC50) in experiment [1] turned out to be 225 nM; in experiment [2], 350 nM; in experiment [3], 700 nM; in experiment [4], 667 nM; in experiment [5] it was 550 nM.

“Nef4.1 peptide (positions 66-80 of the HIV-1 Nef protein, Bru strain) (from UniProt P03406 66-80) (peptide; other documents disagree on this pair)”: the IC50 in experiment [2] came out at 1500 nM.

For the substance “Nef4 peptide (positions 66-94 of the HIV-1 Nef protein, Bru strain) (from UniProt P03406 66-94) (peptide; other documents disagree on this pair)”, the half-inhibitory concentration (IC50) in experiment [1] was 45 nM; in experiment [2] it was 55 nM; in experiment [3], 12 nM; in experiment [4], 750 nM; in experiment [6], 5000 nM; in experiment [5] it was 225 nM.

“Nef4.2 peptide (positions 68-82 of the HIV-1 Nef protein, Bru strain) (from UniProt P03406 68-82) (peptide; other documents disagree on this pair)”: the values for the half-inhibitory concentration (IC50) in experiment [2] and in experiment [4] were 250 nM and 7000 nM, respectively.

With “Nef4.6 peptide (positions 79-93 of the HIV-1 Nef protein, Bru strain) (from UniProt P03406 79-93) (peptide; other documents disagree on this pair)”, the results for the IC50 in experiment [1], in experiment [2] and in experiment [3] were 150 nM, 55 nM and 45 nM, respectively.

Take “Nef4.5 peptide (positions 77-91 of the HIV-1 Nef protein, Bru strain) (from UniProt P03406 77-91) (peptide; other documents disagree on this pair)”: the half-maximal inhibitory concentration (IC50) in experiment [1] was 60 nM; in experiment [2], 12 nM; in experiment [3], 28 nM; in experiment [4] it was 1330 nM.
